Experimental data taken from US20230272055A1 (Incyte, published 2023).
Residue numbers refer to the chain shown, from its start.

B1: anti-mutCALR antibody clone 37 (antibody, human IgG1, lambda, V domains shown)
VH: QVQLVQSGAEVKKPGATVKISCKVSGYSFTDYFIHWVQQAPGKGLAWVGLVDPEDGETIYAEKFQGRVTITADTSTDTAYMELSSLRSEDTAVYYCATPGGILTDPDAFDIWGQGTMVTVSS
VL: QSALTQPASVSGSPGQSITISCTGTSSDVGGYNYVSWYQQHPGKAPKLMIYDVSNRPSGVSNRFSGSKSGNTASLTISGLQAEDEADYYCSSYTSSSTFYVFGTGTKVTVLG
notes: human IgG1
B2: anti-mutCALR antibody clone 35 (antibody, human IgG1, lambda, V domains shown)
VH: B1 VH with K63R
VL: B1 VL with D52E, F99P
notes: human IgG1
B3: anti-mutCALR antibody clone 4 (antibody, human IgG1, lambda, V domains shown)
VH: EVQLVQSGAEVKKPGASVKVSCKVSGYTLTELSMQWVRQAPGKGLEWMGGFDPDDGETMYAEKFQGRLTVTEDTSTDTVYMELRSLTSEDTALYFCATSPGYDFFDYWGQGTLVTVSS
VL: SYVLTQPPSVSVAPGQTARITCGGNNIGSKSVHWYQQKPGQAPVLVVYDDSDRPSGIPERFSGSNSGNTATLTINRVEAGDEADYYCQVWDSSNDLLIFGGGTKLTVLG
notes: human IgG1
B4: anti-mutCALR antibody clone 7 (antibody, human IgG1, lambda, V domains shown)
VH: B3 VH
VL: B3 VL with R19S, G23V, N25T, I27F, S31N, K38R
notes: human IgG1
B5: anti-mutCALR antibody clone 16 (antibody, human IgG1, lambda, V domains shown)
VH: B3 VH
VL: B3 VL with Q16K, I27T
notes: human IgG1
B6: anti-mutCALR antibody clone 9 (antibody, human IgG1, lambda, V domains shown)
VH: B3 VH
VL: B3 VL with T21P, S51R
notes: human IgG1
B7: anti-mutCALR antibody clone 12 (antibody, human IgG1, lambda, V domains shown)
VH: B3 VH with D55G
VL: B3 VL with I20V, T21S, H33N, Q36R, V47I
notes: human IgG1
B8: anti-mutCALR antibody clone 8 (antibody, human IgG1, lambda, V domains shown)
VH: B3 VH with E1Q, A16S
VL: B3 VL with V3E, N68R, N75S, Y86H, N94S, L96H, I98V
notes: human IgG1
B9: anti-mutCALR antibody clone 19 (antibody, human IgG1, lambda, V domains shown)
VH: B3 VH with S75P
VL: B3 VL with P8L, P14L, N25S, S29D, K30I, S31R
notes: human IgG1
B10: anti-mutCALR antibody clone 22 (antibody, human IgG1, lambda, V domains shown)
VH: B3 VH
VL: B3 VL with Q16K, S31N
notes: human IgG1
B11: anti-mutCALR antibody clone 26 (antibody, human IgG1, lambda, V domains shown)
VH: B3 VH
VL: B3 VL with N75S, N94I, L96H, L105V
notes: human IgG1
B12: anti-mutCALR antibody clone 20 (antibody, human IgG1, lambda, V domains shown)
VH: B3 VH
VL: B3 VL with Q16K, S31G
notes: human IgG1
B13: anti-mutCALR antibody clone 29 (antibody, human IgG1, lambda, V domains shown)
VH: B3 VH
VL: B3 VL with Q16K, N75S, N94S, T103A
notes: human IgG1
B14: anti-mutCALR antibody clone 23 (antibody, human IgG1, lambda, V domains shown)
VH: B3 VH
VL: B3 VL with S29I
notes: human IgG1
B15: anti-mutCALR antibody clone 18 (antibody, human IgG1, lambda, V domains shown)
VH: B3 VH
VL: B3 VL with Q16K, S55L
notes: human IgG1
B16: anti-mutCALR antibody clone 30 (antibody, human IgG1, lambda, V domains shown)
VH: B3 VH
VL: B3 VL with Q16K, R19T, S29T
notes: human IgG1
B17: anti-mutCALR antibody clone 25 (antibody, human IgG1, lambda, V domains shown)
VH: B3 VH
VL: B3 VL with V3E, S11A, S29R, S31A
notes: human IgG1
B18: anti-mutCALR antibody clone 5 (antibody, human IgG1, lambda, V domains shown)
VH: B3 VH
VL: B3 VL with R19S, G23V, N25T, I27F, S31N, K38R, N75S, N94S, L96H
notes: human IgG1
B19: anti-mutCALR antibody clone 21 (antibody, human IgG1, lambda, V domains shown)
VH: B3 VH with K23E
VL: B3 VL with I20V, T21S, H33N, Q36R, V47I, N75S
notes: human IgG1
B20: anti-mutCALR antibody clone 13 (antibody, human IgG1, lambda, V domains shown)
VH: B3 VH with E1Q
VL: not shown
notes: human IgG1
B21: anti-mutCALR antibody clone 24 (antibody, human IgG1, lambda, V domains shown)
VH: B3 VH with F64L
VL: B3 VL with Q16K
notes: human IgG1
B22: anti-mutCALR antibody clone 11 (antibody, human IgG1, lambda, V domains shown)
VH: B3 VH with Q3R
VL: QSALTQPRSVSGSPGQSVTISCTGTSSDVGGYNYVSWYQQHPGKAPKLMIYDVSKRPSGVPDRFSGSNSGNTATLTINRVEAGDEADYYCQVWDSSNDLLIFGGGTKLTVLG
notes: human IgG1
B23: anti-mutCALR antibody clone 10 (antibody, human IgG1, lambda, V domains shown)
VH: B3 VH
VL: B3 VL with V3E, T21P, K30E, S31G, N75S
notes: human IgG1
B24: anti-mutCALR antibody clone 28 (antibody, human IgG1, lambda, V domains shown)
VH: B3 VH
VL: B3 VL with V3E, N75S, S92A, S93D, N94S, L96Q
notes: human IgG1
B25: anti-mutCALR antibody clone 27 (antibody, human IgG1, lambda, V domains shown)
VH: B3 VH
VL: B3 VL with S29I, S51R
notes: human IgG1
B26: anti-mutCALR antibody clone 38 (antibody, human IgG1, kappa, V domains shown)
VH: EVQPVQSGAEVKKPGSSVKVSCKASGGTFSSYAISWVRQAPGQGLEWMGLVDPEDGETIYAEKFRGRVTITADTSTDTAYMELSSLRSEDTAVYYCATEESYGPWGQGTLVTVSS
VL: DIQLTQSPSSLSASVGDRVTITCQASQDISNYLNWYQQKPGKAPKLLIYDASNLETGVPSRFSGSGSGTEFTLTISSLQPEDFATYYCQQLNSYPLTFGGGTKLEIKR
notes: human IgG1
B27: anti-mutCALR antibody clone 39 (antibody, human IgG1, kappa, V domains shown)
VH: B26 VH with P4L, R65Q
VL: B26 VL with N34D
notes: human IgG1
B28: anti-mutCALR antibody clone 48 (antibody, human IgG1, lambda, V domains shown)
VH: EVQLVQSGAEVKKPGSSVKVSCKASGGTFSSYAISWVRQAPGQGLEWMGGIIPIFGTANYAQKFQGRVTITADESTSTAYMELSSLRSEDTAVYYCASSPLRGSGWYWHYYYGMDVWGQGTTVTVSS
VL: SYVLTQPPSVSVAPGKTARITCGGNNIGSKSVHWYQQKPGQAPVLVIYQDRKRPSGIPERFSGSNSGNTATLTISGTQAMDEADYYCQAWDSSTAVFGGGTKLTVLG
notes: human IgG1
B29: anti-mutCALR antibody clone 49 (antibody, human IgG1, lambda, V domains shown)
VH: B28 VH
VL: SYELTQPPSVSVAPGKTARITCGGNNIRAKHVHWYQQKPGQSPVLVIYQDSKRPSGIPERFSGSNSGSTATLTISRVEAGDEADYYCQVWDSSTVVFGGGTKLTVLG
notes: human IgG1
B30: anti-mutCALR antibody clone 47 (antibody, human IgG1, lambda, V domains shown)
VH: B28 VH
VL: B29 VL with N26K, R28G, A29T, H31S, S42A, Q49R, K52N, S68N, V77A, E78Q
notes: human IgG1
B31: anti-mutCALR antibody clone 45 (antibody, human IgG1, lambda, V domains shown)
VH: B28 VH
VL: SYVLTQPLSVSVAPGQTARITCGGNNIGRKSVHWYQQKPGQAPVLVIYRDSNRPSGIPERFSGSNSGNTATLTISRAQAGDEADYYCQVWDSSTVVFGGGTKLTVLG
notes: human IgG1
B32: anti-mutCALR antibody clone 44 (antibody, human IgG1, lambda, V domains shown)
VH: B28 VH
VL: B28 VL with V12A, T21S, G28R, P39A, R51S, S93N, A95V
notes: human IgG1

The binders below were run against T1, Recombinant MBP-mutCALR Type 1 fusion protein (human) (assay: SPR, IgG captured, 1:1 fit, Exp. 1).
T1 construct: custom made at Cepter; also called recombinant mutCALR protein
Protocol: Experiment 1: Recombinant MBP-mutCALR Type 1 fusion protein was custom made at Cepter (cepterbiopartners.com). Data for the interaction of antibodies with recombinant MBP-mutCALR Type 1 fusion protein were collected at 25° C. on a Biacore 8K instrument (Cytiva, Marlborough, Mass.), and all reagents were obtained from Cytiva unless otherwise specified. The experiments were conducted using Tris-buffered saline (pH 7.2), 0.005% Surfactant P20, 1 mM CaCl₂) as running buffer. To prepare the capture surfaces, anti-human IgG (Fc) antibodies (Product #29234600) was amine-coupled onto a CM4 chip (Product #BR100534) under standard conditions using an Amine Coupling Kit (Product #BR100050). […] The kinetics parameters were obtained by applying 1:1 binding model to fit the data from multiple-cycle injection experiments using Biacore Insight Evaluation software.

Binder | Kd | koff | kon
B1 | 9.88 nM | 0.00212 s⁻¹ | 215000 M⁻¹ s⁻¹
B2 | 2.82 nM | 0.00599 s⁻¹ | 2.13e+06 M⁻¹ s⁻¹
B3 | 4.33 nM | 0.00704 s⁻¹ | 1.63e+06 M⁻¹ s⁻¹
B4 | 3.83 nM | 0.00609 s⁻¹ | 1.59e+06 M⁻¹ s⁻¹
B5 | 12.5 nM | 0.0354 s⁻¹ | 2.84e+06 M⁻¹ s⁻¹
B6 | 2.99 nM | 0.00904 s⁻¹ | 3.02e+06 M⁻¹ s⁻¹
B7 | 4.08 nM | 0.0024 s⁻¹ | 589000 M⁻¹ s⁻¹
B8 | 4.58 nM | 0.00802 s⁻¹ | 1.75e+06 M⁻¹ s⁻¹
B9 | 9.04 nM | 0.0132 s⁻¹ | 1.46e+06 M⁻¹ s⁻¹
B10 | 12.6 nM | 0.00289 s⁻¹ | 229000 M⁻¹ s⁻¹
B11 | 9.84 nM | 0.00471 s⁻¹ | 478000 M⁻¹ s⁻¹
B12 | 4.46 nM | 0.00498 s⁻¹ | 1.12e+06 M⁻¹ s⁻¹
B13 | 8.16 nM | 0.00561 s⁻¹ | 688000 M⁻¹ s⁻¹
B14 | 4.37 nM | 0.00343 s⁻¹ | 785000 M⁻¹ s⁻¹
B15 | 2.66 nM | 0.00628 s⁻¹ | 2.37e+06 M⁻¹ s⁻¹
B16 | 12.8 nM | 0.00295 s⁻¹ | 231000 M⁻¹ s⁻¹

Binder | Kd | koff | kon
B17 | 6.64 nM | 0.00389 s⁻¹ | 585000 M⁻¹ s⁻¹
B18 | 4.33 nM | 0.00405 s⁻¹ | 935000 M⁻¹ s⁻¹
B19 | 2.58 nM | 0.00664 s⁻¹ | 2.57e+06 M⁻¹ s⁻¹
B20 | 10.1 nM | 0.0301 s⁻¹ | 2.99e+06 M⁻¹ s⁻¹
B21 | 7.62 nM | 0.00199 s⁻¹ | 261000 M⁻¹ s⁻¹
B22 | 10.2 nM | 0.00524 s⁻¹ | 514000 M⁻¹ s⁻¹
B23 | 1.38 nM | 0.00292 s⁻¹ | 2.11e+06 M⁻¹ s⁻¹
B24 | 19.5 nM | 0.00897 s⁻¹ | 460000 M⁻¹ s⁻¹
B25 | 9.63 nM | 0.00366 s⁻¹ | 380000 M⁻¹ s⁻¹
B26 | 2.1 nM | 0.00268 s⁻¹ | 1.28e+06 M⁻¹ s⁻¹
B27 | 5.59 nM | 0.0018 s⁻¹ | 322000 M⁻¹ s⁻¹
B28 | 1.64 nM | 0.000297 s⁻¹ | 181000 M⁻¹ s⁻¹
B29 | 3.61 nM | 0.000669 s⁻¹ | 185000 M⁻¹ s⁻¹
B30 | 3.62 nM | 0.000772 s⁻¹ | 213000 M⁻¹ s⁻¹
B31 | 5.13 nM | 0.0011 s⁻¹ | 214000 M⁻¹ s⁻¹
B32 | 3.84 nM | 0.00101 s⁻¹ | 263000 M⁻¹ s⁻¹
